Test results from article doi:10.1101/2020.02.26.966614.

Biological target: MICAL1-oxidized actin filaments (alpha-skeletal actin, rabbit) (rabbit) (UniProt P68135)
Assay: single-filament microfluidics with fluorescence microscopy

Substance: eGFP-S3D-cofilin-1 (from UniProt P18760 1-166) (natural protein)
- growth rate of single cofilin-1 domains, normalized by the cofilin concentration: 10 sub/s/µM
